Molecular target: 14-3-3ζ of the Tni-FNL-produced BRAF complexes (human) (UniProt P63104)
Assay: cryo-EM structure; BRAF:14-3-3_(2):MEK complex co-expressed in Tni-FNL insect cells and purified as a complex; 3.8 Å

- stoichiometry N: 2
Substance: 14-3-3ζ of the Tni-FNL-produced BRAF complexes (from UniProt P63104 1-245) (natural protein)
